Experimental data as given in paper PMC6255862, “A quaternary tetramer assembly inhibits the deubiquitinating activity of USP25” (Nature Communications, 2018).
Changes are numbered by the printed parent chain. Several values for one entry are separate records, joined by “and”; a condition that tells them apart may be missing. Equal values may be shown once.

Legend:
USP25 Y454F (human) = USP25 Y454F (human) (UniProt Q9UHP3); assay: SEC; oligomer state of USP25 point mutants (Supplementary Figures 6 and 11, not shown); by the methods all USP25 constructs were loaded on a Superdex 16 column in 100 mM NaCl, 20 mM Tris-HCl pH 8.0, 1 mM β-mercaptoethanol and run on native PAGE
[1] = target: USP25CD ΔIL (USP25 catalytic domain construct with the IL-loop, Cys465 to Pro537, replaced by Gly-Ser-Gly) (human); assay: SEC; analytical gel filtration of all truncation constructs run in parallel under identical conditions, Superdex 16 column, 100 mM NaCl, 20 mM Tris-HCl pH 8.0, 1 mM β-mercaptoethanol; oligomer from elution time against expected molecular weight
USP25 Y454E (human) = USP25 Y454E (human) (UniProt Q9UHP3); assay: SEC; oligomer state of USP25 point mutants (Supplementary Figures 6 and 11, not shown); by the methods all USP25 constructs were loaded on a Superdex 16 column in 100 mM NaCl, 20 mM Tris-HCl pH 8.0, 1 mM β-mercaptoethanol and run on native PAGE
[2] = target: USP25CD (human USP25 with the NTD and the CTD deleted) (human); assay: SEC; analytical gel filtration of all truncation constructs run in parallel under identical conditions, Superdex 16 column, 100 mM NaCl, 20 mM Tris-HCl pH 8.0, 1 mM β-mercaptoethanol; oligomer from elution time against expected molecular weight
[3] = target: the molecule itself; assay: as above
[4] = target: T1, USP25FL (full-length human USP25) (human), Q9UHP3; assay: as above; conditions: remark: other sources report otherwise
T1 chain: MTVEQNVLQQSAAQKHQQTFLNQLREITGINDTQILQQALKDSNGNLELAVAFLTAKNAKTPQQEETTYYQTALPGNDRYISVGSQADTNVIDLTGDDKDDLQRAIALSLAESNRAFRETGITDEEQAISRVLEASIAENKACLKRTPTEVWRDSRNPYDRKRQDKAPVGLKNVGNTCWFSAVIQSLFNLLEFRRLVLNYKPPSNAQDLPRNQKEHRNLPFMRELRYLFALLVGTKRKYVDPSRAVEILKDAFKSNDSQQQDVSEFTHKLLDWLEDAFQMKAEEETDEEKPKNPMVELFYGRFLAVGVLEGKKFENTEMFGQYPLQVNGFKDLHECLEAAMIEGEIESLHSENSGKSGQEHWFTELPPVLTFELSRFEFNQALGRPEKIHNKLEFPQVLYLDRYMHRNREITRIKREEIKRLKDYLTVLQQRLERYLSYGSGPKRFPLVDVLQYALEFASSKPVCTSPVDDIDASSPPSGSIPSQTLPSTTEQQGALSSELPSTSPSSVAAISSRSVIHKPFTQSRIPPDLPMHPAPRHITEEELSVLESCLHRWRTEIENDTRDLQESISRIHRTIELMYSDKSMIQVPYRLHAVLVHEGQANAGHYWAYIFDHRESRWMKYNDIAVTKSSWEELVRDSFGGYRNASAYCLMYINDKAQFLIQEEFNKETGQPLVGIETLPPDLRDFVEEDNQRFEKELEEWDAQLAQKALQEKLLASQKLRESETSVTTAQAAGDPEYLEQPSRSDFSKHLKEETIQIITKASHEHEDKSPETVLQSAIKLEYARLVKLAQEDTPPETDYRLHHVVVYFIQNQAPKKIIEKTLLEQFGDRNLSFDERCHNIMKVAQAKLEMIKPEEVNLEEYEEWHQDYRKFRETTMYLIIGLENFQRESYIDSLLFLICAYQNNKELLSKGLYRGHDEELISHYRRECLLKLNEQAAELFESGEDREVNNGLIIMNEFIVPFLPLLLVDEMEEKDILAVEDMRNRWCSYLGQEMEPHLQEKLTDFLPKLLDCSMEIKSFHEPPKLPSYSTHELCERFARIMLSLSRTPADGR

[5] = target: the molecule itself; assay: SEC; purification of USP25NCD: preparative Superdex 200 gel filtration, anion exchange of the two peak fractions, analytical gel filtration (Superdex 16) of the dimer and tetramer fractions; 100 mM NaCl, 20 mM Tris-HCl pH 8.0, 1 mM β-mercaptoethanol
[6] = target: the molecule itself; assay: crystal structure; lysine-methylated USP25NCD tetramer fraction; space group I422, one molecule per asymmetric unit, tetramer from the crystal lattice; 3.28 Å
[7] = target: the molecule itself; assay: SEC; oligomer state of USP25 point mutants (Supplementary Figures 6 and 11, not shown); by the methods all USP25 constructs were loaded on a Superdex 16 column in 100 mM NaCl, 20 mM Tris-HCl pH 8.0, 1 mM β-mercaptoethanol and run on native PAGE

USP25 Y454F (from UniProt Q9UHP3 1-1055) (enzyme)
stoichiometry N (USP25 Y454F (human)): 4

USP25CD ΔIL (USP25 catalytic domain construct with the IL-loop, Cys465 to Pro537, replaced by Gly-Ser-Gly) (domain or fragment)
stoichiometry N [1]: 2

USP25 Y454E (from UniProt Q9UHP3 1-1055) (enzyme)
stoichiometry N (USP25 Y454E (human)): 2

USP25CD (human USP25 with the NTD and the CTD deleted) (domain or fragment)
stoichiometry N [2]: 4

B1: USP25NCD ΔIL (USP25 18-714 with the IL-loop, Cys465 to Pro537, replaced by Gly-Ser-Gly) (enzyme, human)
chain: QTFLNQLREITGINDTQILQQALKDSNGNLELAVAFLTAKNAKTPQQEETTYYQTALPGNDRYISVGSQADTNVIDLTGDDKDDLQRAIALSLAESNRAFRETGITDEEQAISRVLEASIAENKACLKRTPTEVWRDSRNPYDRKRQDKAPVGLKNVGNTCWFSAVIQSLFNLLEFRRLVLNYKPPSNAQDLPRNQKEHRNLPFMRELRYLFALLVGTKRKYVDPSRAVEILKDAFKSNDSQQQDVSEFTHKLLDWLEDAFQMKAEEETDEEKPKNPMVELFYGRFLAVGVLEGKKFENTEMFGQYPLQVNGFKDLHECLEAAMIEGEIESLHSENSGKSGQEHWFTELPPVLTFELSRFEFNQALGRPEKIHNKLEFPQVLYLDRYMHRNREITRIKREEIKRLKDYLTVLQQRLERYLSYGSGPKRFPLVDVLQYALEFASSKPVGSGRHITEEELSVLESCLHRWRTEIENDTRDLQESISRIHRTIELMYSDKSMIQVPYRLHAVLVHEGQANAGHYWAYIFDHRESRWMKYNDIAVTKSSWEELVRDSFGGYRNASAYCLMYINDKAQFLIQEEFNKETGQPLVGIETLPPDLRDFVEEDNQRFEKELEEWDAQLAQKALQE
notes: USP25, human, from Gln18 to the residue before the deletion (deletion from Cys465 to Pro537); three-amino-acid linker Gly-Ser-Gly in place of the deleted stretch; USP25, human, from the residue after the deletion to Glu714; also called ΔIL USP25NCD; USP25NCD ∆IL; not shown: Smt3, N-terminal, cleaved
stoichiometry N [3]: 2

B2: USP25FL ΔIL (full-length USP25 with the IL-loop, Cys465 to Pro537, replaced by Gly-Ser-Gly) (enzyme, human)
chain: MTVEQNVLQQSAAQKHQQTFLNQLREITGINDTQILQQALKDSNGNLELAVAFLTAKNAKTPQQEETTYYQTALPGNDRYISVGSQADTNVIDLTGDDKDDLQRAIALSLAESNRAFRETGITDEEQAISRVLEASIAENKACLKRTPTEVWRDSRNPYDRKRQDKAPVGLKNVGNTCWFSAVIQSLFNLLEFRRLVLNYKPPSNAQDLPRNQKEHRNLPFMRELRYLFALLVGTKRKYVDPSRAVEILKDAFKSNDSQQQDVSEFTHKLLDWLEDAFQMKAEEETDEEKPKNPMVELFYGRFLAVGVLEGKKFENTEMFGQYPLQVNGFKDLHECLEAAMIEGEIESLHSENSGKSGQEHWFTELPPVLTFELSRFEFNQALGRPEKIHNKLEFPQVLYLDRYMHRNREITRIKREEIKRLKDYLTVLQQRLERYLSYGSGPKRFPLVDVLQYALEFASSKPVGSGRHITEEELSVLESCLHRWRTEIENDTRDLQESISRIHRTIELMYSDKSMIQVPYRLHAVLVHEGQANAGHYWAYIFDHRESRWMKYNDIAVTKSSWEELVRDSFGGYRNASAYCLMYINDKAQFLIQEEFNKETGQPLVGIETLPPDLRDFVEEDNQRFEKELEEWDAQLAQKALQEKLLASQKLRESETSVTTAQAAGDPEYLEQPSRSDFSKHLKEETIQIITKASHEHEDKSPETVLQSAIKLEYARLVKLAQEDTPPETDYRLHHVVVYFIQNQAPKKIIEKTLLEQFGDRNLSFDERCHNIMKVAQAKLEMIKPEEVNLEEYEEWHQDYRKFRETTMYLIIGLENFQRESYIDSLLFLICAYQNNKELLSKGLYRGHDEELISHYRRECLLKLNEQAAELFESGEDREVNNGLIIMNEFIVPFLPLLLVDEMEEKDILAVEDMRNRWCSYLGQEMEPHLQEKLTDFLPKLLDCSMEIKSFHEPPKLPSYSTHELCERFARIMLSLSRTPADGR
notes: USP25, human, from Met1 to the residue before the deletion (deletion from Cys465 to Pro537); three-amino-acid linker Gly-Ser-Gly in place of the deleted stretch; USP25, human, from the residue after the deletion to Arg1055; also called ΔIL USP25FL; not shown: Smt3, N-terminal, cleaved
stoichiometry N [3]: 2

B3: USP25FL (full-length human USP25), Q9UHP3 1-1055 (enzyme)
chain: T1 chain
stoichiometry N [4]: 4

B4: USP25NCD (human USP25, N-terminal domain and USP-like catalytic domain, Gln18 to Glu714) (enzyme, UniProt Q9UHP3 18-714, looked up)
chain: QTFLNQLREITGINDTQILQQALKDSNGNLELAVAFLTAKNAKTPQQEETTYYQTALPGNDRYISVGSQADTNVIDLTGDDKDDLQRAIALSLAESNRAFRETGITDEEQAISRVLEASIAENKACLKRTPTEVWRDSRNPYDRKRQDKAPVGLKNVGNTCWFSAVIQSLFNLLEFRRLVLNYKPPSNAQDLPRNQKEHRNLPFMRELRYLFALLVGTKRKYVDPSRAVEILKDAFKSNDSQQQDVSEFTHKLLDWLEDAFQMKAEEETDEEKPKNPMVELFYGRFLAVGVLEGKKFENTEMFGQYPLQVNGFKDLHECLEAAMIEGEIESLHSENSGKSGQEHWFTELPPVLTFELSRFEFNQALGRPEKIHNKLEFPQVLYLDRYMHRNREITRIKREEIKRLKDYLTVLQQRLERYLSYGSGPKRFPLVDVLQYALEFASSKPVCTSPVDDIDASSPPSGSIPSQTLPSTTEQQGALSSELPSTSPSSVAAISSRSVIHKPFTQSRIPPDLPMHPAPRHITEEELSVLESCLHRWRTEIENDTRDLQESISRIHRTIELMYSDKSMIQVPYRLHAVLVHEGQANAGHYWAYIFDHRESRWMKYNDIAVTKSSWEELVRDSFGGYRNASAYCLMYINDKAQFLIQEEFNKETGQPLVGIETLPPDLRDFVEEDNQRFEKELEEWDAQLAQKALQE
notes: USP25, human, residues 18-714 of the 1055-residue protein (Met1 to Arg1055); A His tag ahead of Smt3 is surmised from the Ni2+ purification; also called USP25NCD tetramer; USP25NCD dimer; not shown: Smt3, N-terminal, cleaved
stoichiometry N [5]: 2 and 4

B5: USP25NCD, lysine-methylated (tetramer fraction used for crystallization) (enzyme, human, UniProt Q9UHP3 18-714, looked up)
chain: B4 chain
modifications: lysines methylated (borane-dimethylamine complex and formaldehyde)
notes: USP25, human, residues 18-714 of the 1055-residue protein; Model holds Tyr159 to Ala708; NTD (18-158) and several loops (205-214, 256-260, 346-354, 471-515, 671-677) are not seen; also called USP25NCD tetramer; lysine methylated USP25NCD; not shown: Smt3, N-terminal, cleaved
stoichiometry N [6]: 4

B6: USP25NCD L271W (enzyme, human, UniProt Q9UHP3 18-714, looked up)
chain: B4 chain with L254W
notes: The methods speak of 'USP25NCD point mutants'; not shown: Smt3, N-terminal, cleaved
stoichiometry N [7]: 4
